{"source": "paper PMC9317006", "about": "“A Fiber-Based SPR Aptasensor for the In Vitro Detection of Inflammation Biomarkers”", "key": {"fibrinogen": {"tested_on": "fibrinogen", "experiment": "fiber-based SPR", "settings": "100 nM protein; 3' thiol; Detection buffer: 25 mM Tris base, 192 mM glycine, 0.05% Tween 20, 0.1% BSA, 2 mM CaCl2, 100 mM NaCl, pH 8.0; binding temperature not stated (RI calibration at …)"}, "hemoglobin": {"tested_on": "hemoglobin", "experiment": "fiber-based SPR", "settings": "100 nM protein; 3' thiol; Detection buffer: 25 mM Tris base, 192 mM glycine, 0.05% Tween 20, 0.1% BSA, 2 mM CaCl2, 100 mM NaCl, pH 8.0; binding temperature not stated (RI calibration at …)"}, "C-reactive protein (CRP)": {"biological_target": "T1, C-reactive protein (CRP) (human, UniProt P02741 19-224)", "T1 sequence": "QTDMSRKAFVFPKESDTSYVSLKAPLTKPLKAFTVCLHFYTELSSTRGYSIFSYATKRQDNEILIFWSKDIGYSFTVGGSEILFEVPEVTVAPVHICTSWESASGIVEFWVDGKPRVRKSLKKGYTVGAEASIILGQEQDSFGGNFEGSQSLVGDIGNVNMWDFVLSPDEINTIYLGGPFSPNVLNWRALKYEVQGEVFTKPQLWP", "experiment": "fiber-based SPR; LOD 1.7 nM (not a Kd); aptamer loaded at 100 nM; Detection buffer: 25 mM Tris base, 192 mM glycine, 0.05% Tween 20, 0.1% BSA, 2 mM CaCl2, 100 mM NaCl, pH 8.0; binding temperature not stated (RI calibration at)", "settings": "protein: recombinant; chain copies: 5"}, "[1]": {"biological_target": "cardiac troponin I (cTn-I) (human, UniProt P19429 1-210)", "sequence (P19429 whole entry)": "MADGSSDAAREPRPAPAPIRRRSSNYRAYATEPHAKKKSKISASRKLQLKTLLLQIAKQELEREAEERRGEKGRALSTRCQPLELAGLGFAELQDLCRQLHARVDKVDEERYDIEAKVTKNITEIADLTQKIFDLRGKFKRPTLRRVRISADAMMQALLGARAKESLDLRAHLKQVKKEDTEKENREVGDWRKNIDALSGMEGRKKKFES", "experiment": "fiber-based SPR; LOD 2.5 nM (not a Kd); aptamer loaded at 200 nM; Detection buffer: 25 mM Tris base, 192 mM glycine, 0.05% Tween 20, 0.1% BSA, 2 mM CaCl2, 100 mM NaCl, pH 8.0; binding temperature not stated (RI calibration at)", "settings": "protein: recombinant"}}, "data": [{"molecule": "CGAAGGGGATTCGAGGGGTGATTGCGTGCTCCATTTGGTGTTTTT [cTn-I aptamer]", "values": [{"measurement": "binding signal (% of specific response)", "setting": "fibrinogen", "value": "< 20"}, {"measurement": "binding signal (% of specific response)", "setting": "hemoglobin", "value": "< 20"}]}, {"molecule": "GGCAGGAAGACAAACACGATGGGGGGGTATGATTTGATGTGGTTGTGCATGATCGTGGTCTGTGGTGCTGTTTTT [CRP aptamer]", "values": [{"measurement": "binding signal (% of specific response)", "setting": "fibrinogen", "value": "< 20"}, {"measurement": "binding signal (% of specific response)", "setting": "hemoglobin", "value": "< 20"}]}, {"molecule": "CRP aptamer (ssDNA, 3' thiol) DNA: GGCAGGAAGACAAACACGATGGGGGGGTATGATTTGATGTGGTTGTGCATGATCGTGGTCTGTGGTGCTGTTTTT", "values": [{"measurement": "binding result", "setting": "C-reactive protein (CRP)", "value": "binds"}]}, {"molecule": "CGAAGGGGATTCGAGGGGTGATTGCGTGCTCCATTTGGTGTTTTT (ssDNA, 3' thiol)", "note": "[cTn-I aptamer]", "values": [{"measurement": "binding result", "setting": "[1]", "value": "binds"}]}]}
